Legend:
[1] = system: C=C(O[C@@H]1C=C(C(=O)O)C=C[C@H]1O)C(=O)O; assay: purified protein; settings: PBS pH 7.5, 30 °C, CM site, lowest substrate 2.5 μM (Km near or below this is less reliable)
[2] = system: O=C(O)C(=O)CC1(C(=O)O)C=CC(O)C=C1; assay: purified protein; settings: PBS pH 7.5, 30 °C, CDT site
[3] = system: T1, O=C(O)C(=O)CC1(C(=O)O)C=CC(O)C=C1; assay: discontinuous CDT assay, phenylpyruvate enolate A320; assay type: biochemical, Steroidobacter cummioxidans; settings: PBS pH 7.5, 30 °C, CDT site
T1 construct: fusion enzyme, CM N-terminal to CDT; without signal peptide, C-terminal His-tag; E. coli KA29; monomer
Description: discontinuous CDT assay, phenylpyruvate enolate A320 on ∗ScCMCDT

[4] = system: T2, C=C(O[C@@H]1C=C(C(=O)O)C=C[C@H]1O)C(=O)O; assay: discontinuous CM assay, phenylpyruvate enolate A320; assay type: biochemical, Steroidobacter cummioxidans; settings: PBS pH 7.5, 30 °C, CM site
T2 construct: fusion enzyme, CM N-terminal to CDT; without signal peptide, C-terminal His-tag; E. coli KA29; monomer
Description: discontinuous CM assay, phenylpyruvate enolate A320 on ∗ScCMCDT

[5] = substrate: O=C(O)C(=O)CC1(C(=O)O)C=CC(O)C=C1; assay: discontinuous CDT assay, phenylpyruvate enolate A320; assay type: biochemical, Janthinobacterium sp. HH01; settings: PBS pH 7.5, 30 °C, CDT site
Description: discontinuous CDT assay, phenylpyruvate enolate A320 on ∗JbCDTCM

[6] = substrate: C=C(O[C@@H]1C=C(C(=O)O)C=C[C@H]1O)C(=O)O; assay: discontinuous CM assay, phenylpyruvate enolate A320; assay type: biochemical, Janthinobacterium sp. HH01; settings: PBS pH 7.5, 30 °C, CM site, lowest substrate 2.5 μM (Km near or below this is less reliable)
Description: discontinuous CM assay, phenylpyruvate enolate A320 on ∗JbCDTCM

[7] = substrate: C=C(O[C@@H]1C=C(C(=O)O)C=C[C@H]1O)C(=O)O; assay: as above; assay type: biochemical, Shewanella baltica; settings: PBS pH 7.5, 30 °C, CM site, lowest substrate 2.5 μM (Km near or below this is less reliable)
Description: discontinuous CM assay, phenylpyruvate enolate A320 on ∗SbCMCDT

[8] = substrate: O=C(O)C(=O)CC1(C(=O)O)C=CC(O)C=C1; assay: discontinuous CDT assay, phenylpyruvate enolate A320; assay type: biochemical, Shewanella baltica; settings: PBS pH 7.5, 30 °C, CDT site, lowest substrate 2.5 μM (Km near or below this is less reliable)
Description: discontinuous CDT assay, phenylpyruvate enolate A320 on ∗SbCMCDT

[9] = substrate: C=C(O[C@@H]1C=C(C(=O)O)C=C[C@H]1O)C(=O)O; assay: discontinuous CM assay, phenylpyruvate enolate A320; assay type: biochemical, Janthinobacterium sp. HH01; settings: PBS pH 7.5, 30 °C, lowest substrate 2.5 μM (Km near or below this is less reliable)
Description: discontinuous CM assay, phenylpyruvate enolate […] on ∗JbCM

[10] = CM-site knock-out, lowest substrate 2.5 μM (Km near or below this is less reliable)

∗MpCDTCM (Massilia phosphatilytica)
Km [1]: 3.2 ± 0.0 µM
kcat [1]: 26.3 ± 1.4 s⁻¹
kcat/Km [1]: 8.3e+06 ± 400000 M⁻¹ s⁻¹
Km [2]: 18.1 ± 1.7 µM
kcat [2]: 41.8 ± 3.5 s⁻¹
kcat/Km [2]: 2.3e+06 M⁻¹ s⁻¹

∗ScCMCDT (Steroidobacter cummioxidans)
Km [3]: 16.6 ± 2.5 µM
kcat [3]: 32.0 ± 8.4 s⁻¹
kcat/Km [3]: 1.9e+06 ± 200000 M⁻¹ s⁻¹
Km [4]: 6.3 ± 3.9 µM
kcat [4]: 6.8 ± 0.7 s⁻¹

∗DsCDTCM (Duganella sacchari)
Km [1]: 3.0 ± 0.8 µM
kcat [1]: 19.5 ± 0.2 s⁻¹
kcat/Km [1]: 6.8e+06 ± 1.9e+06 M⁻¹ s⁻¹
Km [2]: 14.6 ± 3.1 µM
kcat [2]: 24.9 ± 2.0 s⁻¹
kcat/Km [2]: 1.8e+06 ± 500000 M⁻¹ s⁻¹

B1: ∗JbCDTCM (Janthinobacterium sp. HH01) (protein)
chain: DHRLDDITARGVLRVGTTGDYKPFSSRAGNDFVGLDIELAADLARTLGVPVQIVPTSWPTLMKDFGDGKFDIALGGVSITPERQKQGLFSVSYLRDGKTPITRCENSARFQTLAQIDQPGVRLVVNPGGTNERFARSQAPNAQLTVYPDNVTIFDQIVTGAADLMITDAIETRLQQRLRPQLCAVHPDTPFDFAEKAILLPRDVAFKAVVDKWLQQRIASGAVQRSVDRWLDFPWGLEPLRLAIDQRLLLAQAVARAKWNVQAPIEDLGREAQVIQAAVKEGAALGLPKVWIETVFRAQIEASKTVQRELFAQWSAQQAGKFDDAPDLAKTIRPELDRLTTQLLRSMASNQTVLNDEARKADVARAMRALEARALSPQAATQALAPFF
notes: fusion enzyme, CDT N-terminal to CM; without signal peptide, C-terminal His-tag; E. coli KA29; monomer
Km [5]: 7.3 ± 2.0 µM
kcat [5]: 13.0 ± 1.3 s⁻¹
kcat/Km [5]: 1.8e+06 ± 300000 M⁻¹ s⁻¹
Km [6]: 3.0 ± 0.1 µM
kcat [6]: 17.1 ± 0.9 s⁻¹
kcat/Km [6]: 5.7e+06 ± 100000 M⁻¹ s⁻¹

B2: ∗JbCDTCM (Janthinobacterium sp. HH01; K287A) (protein)
chain: DHRLDDITARGVLRVGTTGDYKPFSSRAGNDFVGLDIELAADLARTLGVPVQIVPTSWPTLMKDFGDGKFDIALGGVSITPERQKQGLFSVSYLRDGKTPITRCENSARFQTLAQIDQPGVRLVVNPGGTNERFARSQAPNAQLTVYPDNVTIFDQIVTGAADLMITDAIETRLQQRLRPQLCAVHPDTPFDFAEKAILLPRDVAFKAVVDKWLQQRIASGAVQRSVDRWLDFPWGLEPLRLAIDQRLLLAQAVARAAWNVQAPIEDLGREAQVIQAAVKEGAALGLPKVWIETVFRAQIEASKTVQRELFAQWSAQQAGKFDDAPDLAKTIRPELDRLTTQLLRSMASNQTVLNDEARKADVARAMRALEARALSPQAATQALAPFF
notes: as for B1
Km [5, 10]: 4.2 ± 0.4 µM
kcat [5, 10]: 13.9 ± 0.3 s⁻¹
kcat/Km [5, 10]: 3.3e+06 ± 200000 M⁻¹ s⁻¹

B3: ∗JbCDTCM (Janthinobacterium sp. HH01; E200Q) (protein)
chain: DHRLDDITARGVLRVGTTGDYKPFSSRAGNDFVGLDIELAADLARTLGVPVQIVPTSWPTLMKDFGDGKFDIALGGVSITPERQKQGLFSVSYLRDGKTPITRCENSARFQTLAQIDQPGVRLVVNPGGTNERFARSQAPNAQLTVYPDNVTIFDQIVTGAADLMITDAIQTRLQQRLRPQLCAVHPDTPFDFAEKAILLPRDVAFKAVVDKWLQQRIASGAVQRSVDRWLDFPWGLEPLRLAIDQRLLLAQAVARAKWNVQAPIEDLGREAQVIQAAVKEGAALGLPKVWIETVFRAQIEASKTVQRELFAQWSAQQAGKFDDAPDLAKTIRPELDRLTTQLLRSMASNQTVLNDEARKADVARAMRALEARALSPQAATQALAPFF
notes: as for B1
Km ([6]; CDT-site knock-out): 2.4 ± 1.3 µM
kcat ([6]; CDT-site knock-out): 15.6 ± 0.4 s⁻¹
kcat/Km ([6]; CDT-site knock-out): 7.9e+06 ± 4.5e+06 M⁻¹ s⁻¹

B4: ∗SbCMCDT (Shewanella baltica OS155) (protein)
chain: DTDENAELYANMNTRLSYMQQVALYKWQHQLPIEDLAREKIVLAQSVTAAESLGITSVAITDFFQVQIELAKKIQRQYHQQWREHGLPQTLQTKQNTKLSLDKIRPALTTLGQTIIEQIAEHQDQHDFSVFNLAIDTPLVSIEDKAVLFRSLSLIKPKVYLSTLDKIIAEKILYVGTTGDYEPFSYFEAGQIKGIDIDLANRLADSLGAQAVFLPTSWSNLITDLSSERFDIMMSGISKQLFRQRVGLQSDIYLEDGKTPISLCAKKERYDSLAKIDKPDTRMIVNKGGTNQRFVDANIKQAKITVHSSNVTIFQELIANRADVMITDRVEVQLQTKKHTELCSTMPNNLNYSAKAFLMGRDPIWKEYVDAWLELSIKDGSVSNIFNHYI
notes: fusion enzyme, CM N-terminal to CDT; without signal peptide, C-terminal His-tag; E. coli KA29
Km [7]: 3.2 ± 2.7 µM
kcat [7]: 6.8 ± 0.1 s⁻¹
Km [8]: 3.6 ± 1.1 µM
kcat [8]: 12.2 ± 2.8 s⁻¹
kcat/Km [8]: 3.5e+06 ± 300000 M⁻¹ s⁻¹

B5: ∗JbCM (Janthinobacterium sp. HH01) (protein)
chain: GLEPLRLAIDQRLLLAQAVARAKWNVQAPIEDLGREAQVIQAAVKEGAALGLPKVWIETVFRAQIEASKTVQRELFAQWSAQQAGKFDDAPDLAKTIRPELDRLTTQLLRSMASNQTVLNDEARKADVARAMRALEARALSPQAATQALAPFF
notes: split-off CM domain of JbCDTCM, starts at Gly238; C-terminal His-tag; E. coli KA29
Km [9]: 2.2 ± 0.3 µM
kcat [9]: 16.4 ± 1.5 s⁻¹
kcat/Km [9]: 7.6e+06 ± 1.7e+06 M⁻¹ s⁻¹

Source: article PMC10520331, “Novel exported fusion enzymes with chorismate mutase and cyclohexadienyl dehydratase activity: Shikimate pathway enzymes teamed up in no man's land” (The Journal of Biological Chemistry, 2023)
